Reference: US8889408B2, “Factor taking part in transcription control” (Sony Corporation, priority 2002, dated 2014)

How the values were obtained:
MM-1-19-P cells = assay: ATRA-induced differentiation of MM-1-19-P rhabdomyosarcoma cells; format: cell-based, human
Source text: It is known that ATRA (all-trans retinoic acid) is an important inducer for tumor cell differentiation (20-22). The human rhabdomyosarcoma cell line MM-1-19-P is constituted mainly of small polygonal cells, which when provided with retinoic acid, ultimately differentiate into myotubular cytomegalic cells. In order to clarify the physiological role of HDART in the reaction ascribed to nuclear hormone receptors, the influence of the expression with HDART on the differentiation of MM-1-19-P caused by ATRA was analyzed.
MM-1-19-P cells were plated in a […] Petri dish, followed by co-transfection of the cells with 0.4 μg of pGFP vector and 2 μg of pcDNA3 (vacant vector) or pcDMA3-HDART (HDART expression vector). 24 hours after the transfection, the medium was changed with an ATRA-containing (2 μM) or ATRA-free fresh one. […] All experiments were repeated four times, and the number of cells assessed as positive for GFP was counted. It will be noted that in FIG. 12, the standard microphotographs of green fluorescence of GFP are shown in panels of FIGS. 12A, 12B, 12C and 12D, and the phase differential microphotographs are shown in panels of FIGS. 12E and 12F, respectively. In the figure, 12A indicates ATRA non-treated, vacant vector-introduced cells, 12B indicates ATRA treated, vacant vector-introduced cells, 12C indicates ATRA-non-treated, HDART expression vector-introduced cells, 12D indicates ATRA-treated, HDART expression vector-introduced cells, 12E indicates cells under the same conditions as in 12C above, and 12F indicates cells under the same conditions as in 12D above. In addition, the black arrow in the panel of FIG. 12F indicates undifferentiated GFP positive cells, and white arrow indicates differentiated cells.

retinoic acid receptor = assay: RAR reporter CAT analysis in HepG2 cells; format: cell-based
Method: Since it is shown in the above example that HDART is able to interact with Skip, the functional role of HDART on the transcription route ascribed to a nuclear receptor was analyzed. First, the effect of HDART on the transcription regulation by retinoic acid receptor was analyzed. For this purpose, the CAT analysis was made using a RAR (retinoid acid receptor) reporter plasmid incorporating a thymidine kinase minimum promoter (pTREpal-tata) and CAT gene therein downstream of a retinoid response element.
More particularly, pcDNA3-HDART, capable of steadily expressing HDART, and, at the same time, RAR reporter plasmid, were transfected into HepG2 cells by use of Effectene kit (QIAGEN™). It is to be noted that the pcDNA3-HDART expression vector was introduced in different amounts of 0, 0.5 and 1.0 μg, and the amount of DNA in the respective transfections was equalized at 1 μg by adding the appropriate amount of a vacant vector of pcDNA. After the transfection, growth was made in the presence (10^−8 M) or absence of ATRA and the CAT activity was measured. The results of the measurement (FIG. 6) are indicated in terms of values corrected on the basis of the CAT activity obtained after introduction of 1.0 μg of a vacant vector in the absence of ATRA. In addition, the average of the results of three experiments and a standard deviation in terms of an error bar are also shown.
(§1) Next, the influence of the overexpression of N4TPR on the transcription from RAR or a glucocorticoid responsive promoter was checked. It will be noted that this test was made in the same manner as in the reporter analysis set out in Example 4, but using GFP-N4TPR expression vector (0, 0.3 and 0.5 μg).

HDAC = assay: CAT reporter analysis with HDART in the presence of HDAC inhibitors; format: cell-based; details: pcDNA3-HDART 1 μg
Method: In this example, however, a given amount of pcDNA3-HDART expression vector (1 μg) (“HDART+” in FIGS. 10) and 100 nM of TSA or […] of sodium butyrate was added to along with a ligand (ATRA or dexamethasone).

[1] = system: glucocorticoid receptor (GR); assay: GR reporter CAT analysis in GR positive Hela cells; format: cell-based
Method: Furthermore, the action of HDART on the transcription regulation by glucocorticoid receptor (GR) was analyzed by use of GR reporter plasmid in GR positive Hela cells. The transcription activity of a glucocorticoid response promoter was carried out in the same manner as in the experiment for the retinoic acid receptor except for the use of Hela cells and 10^−8 M of dexamethasone. The results of the measurement are shown in the same manner as shown above.
as §1

Skip [2] = target: T1, Skip (Homo sapiens, UniProt Q13573); assay: Immunoprecipitation: N4TPR inhibition of endogenous HDART-Skip interaction in 293 cells; format: binding; design: expressed in transfected cells; host or cells: 293 cells; details: GFP-N4TPR expressed versus GFP alone
T1 sequence (Q13573 1-536): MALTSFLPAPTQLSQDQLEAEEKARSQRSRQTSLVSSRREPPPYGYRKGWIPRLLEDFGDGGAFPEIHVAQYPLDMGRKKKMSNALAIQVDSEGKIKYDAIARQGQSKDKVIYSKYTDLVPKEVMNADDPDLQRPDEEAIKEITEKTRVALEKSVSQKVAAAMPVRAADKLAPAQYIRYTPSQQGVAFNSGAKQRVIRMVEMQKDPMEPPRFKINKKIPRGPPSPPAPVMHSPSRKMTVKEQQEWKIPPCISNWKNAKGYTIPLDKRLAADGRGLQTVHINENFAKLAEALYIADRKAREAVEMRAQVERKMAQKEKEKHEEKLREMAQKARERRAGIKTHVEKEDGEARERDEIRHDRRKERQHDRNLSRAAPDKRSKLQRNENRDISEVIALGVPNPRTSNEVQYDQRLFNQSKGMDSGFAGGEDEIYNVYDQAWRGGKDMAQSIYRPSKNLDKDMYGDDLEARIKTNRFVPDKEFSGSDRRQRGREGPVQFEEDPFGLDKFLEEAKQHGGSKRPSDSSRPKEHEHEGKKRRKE
Source text: RAR and TR inhibit the genetic activity in the absence of a ligand in vivo (Baniahmad, A., Kohne, A. C., and Renkawitz, R. (1992) Embo J 11(3), 1015-23) and in vitro (Fondell, J. D., Roy, A. L., and Roeder, R. G. (1993) Genes Dev 7(7B), 1400-10). From this, this is called active repression. Skip interacts with NHR independently of ligand (MacDonald, P. N., Baudino, T. A., Toumaru, H., Dowd, D. R., and Zhang, C. (2001) Steroids 66 (3-5), 171-6). […] In order to clarify these possibilities, a dominant negative line of HDART is overexpressed to check the influence on the transcription ascribed to RAR. As shown in Example 2, the four TRPs (N4TPR) at the N terminus of HDART are in the Skip binding region, so that it is hypothesized that the expression of this region inhibits the interaction between the endogenous HDART and Skip, it is inhibiting the natural function of HDART and functioning as a dominant negative. In this sense, the N4TPR was used as a candidate for dominant negative in this example.
Flag-Skip and N4TPR tagged with GFP or GFP were transfected into 293 cells. […] The expression of Flag-Skip was detected using an anti-Flag antibody, the expression of GFP and GFP-N4TPR detected using an anti-GFP antibody, and the expression of the internal HDART detected using an anti-HDART antibody, respectively (FIG. 11A).

Skip [3] = target: T1, Skip; assay: Yeast two-hybrid analysis (β-galactosidase) of HDART-Skip interaction; format: binding; design: expressed in transfected cells; host or cells: Saccharomyces cerevisiae Y190; details: Gal4DBD-HDART and deletion mutants with Gal4AD-Skip; β-galactosidase activity
Source text: In order to isolate a protein that binds to this HDART, a yeast two-hybrid system was used. More particularly, a yeast MATCHMAKER two-hybrid analysis kit (Clontech) was used for the isolation. The ORF full length of HDART was inserted so that it and the Gal4 DNA binding domain reading frame were aligned in the same frame with each other within pAS-1 vector (Clontech). This bait plasmid was transformed into Saccharomyces cerevisiae Y190 along with pACT2 prey plasmid whose HeLa cDNA (Clontech) had been sub-cloned. The screening for clones into which both plasmids were introduced was carried out according to the kit protocol. […]
For mapping of regions on the Skip taking part in the interaction with HDART, a series of deletion mutations where various regions on Skip (N-terminus region (codon 1-220), nuclear hormone binding region (NHR binding, codon 221-388), and tran-activation region (TA, codon 438-536) were deleted, and the interaction between HDART and mutated Skip was analyzed according to the yeast two-hybrid analysis using Gal4DBD-HDART as set forth in Example 2. The results of the analysis are shown in FIG. 5A. The sign “+” indicated at the right of FIG. 5A indicates the observation of the interaction by the filter lift analysis of β-galactosidase activity, and the number of “+” indicates the relative intensity of the interaction. […]

[4] = absence of a ligand, GFP-N4TPR expression vector 0.5 μg (highest expression level)
[5] = absence of ligand, GFP-N4TPR expression vector 0.3 μg

CC1=C(/C=C/C(C)=C/C=C/C(C)=C/C(=O)O)C(C)(C)CCC1 [ATRA, all-trans retinoic acid, reference compound]
number of GFP positive cells (cytotoxic effect) (MM-1-19-P cells; cells treated with the vacant vector and ATRA 2 μM): less than 30% | morphological differentiation into muscle tissue (myotubular cytomegalic cells) (MM-1-19-P cells; vacant vector-introduced cells, ATRA 2 μM, 48 hours): differentiated into muscle tissue | CAT activity (retinoic acid receptor; HepG2 cells receiving vacant vector (pcDNA), presence of ATRA 10^−8 M versus absence): increased five-fold

CCCC(=O)[O-].[Na+] [sodium butyrate]
expression repression by HDART (HDAC; 1 mA of sodium butyrate added with ligand (ATRA or dexamethasone)): The same results were also observed

CC(/C=C/C(=O)NO)=C\[C@@H](C)C(=O)c1ccc(N(C)C)cc1 [triconstatin A, tricostatin A]
expression repression by HDART (HDAC; 100 nM TSA added with ligand (ATRA or dexamethasone)): fully neutralized

B1: N4TPR: dominant negative peptide of HDART: four TPRs at the N terminus, amino acids 1 to 179 of SEQ ID NO: 2 (protein, listed as Homo sapiens)
chain: MVVMARLSRPERPDLVFEEEDLPYEEEIMRNQFSVKCWLRYIEFKQGAPKPRLNQLYERALKLLPCSYKLWYRYLKARRAQVKHRCVTDPAYEDVNNCHERAFVFMHKMPRLWLDYCQFLMDQGRVTHTRRTFDRALRALPITQHSRIWPLYLRFLRSHPLPETAVRGYRRFLKLSPES
transcription activity from the glucocorticoid responsive promoter [1, 4]: about 20 times | transcription activity from the glucocorticoid responsive promoter [1, 5]: increased up to the amount (gray column) of transcription activity induced by the presence of ligand | transcription activation capability for the retinoic acid receptor compared with ATRA (retinoic acid receptor; N4TPR versus ATRA): higher transcription activation capability than ATRA | transcription activity from the RAR responsive promoter (retinoic acid receptor; [4]): about 20 times | transcription activity from the RAR responsive promoter (retinoic acid receptor; [5]): increased up to the amount (gray column) of transcription activity induced by the presence of ligand | amount of HDART co-precipitated with Skip (Skip [2]): more reduced amount | interaction with Skip (Skip [3]): ensures the interaction with Skip to a full extent
